According to publication PMC12147180:

How the values were obtained:
[1] = biological target: CCR9 C1 + C2 (CCR9-RlucII with all C-tail phosphorylation sites changed to alanine) (human) (UniProt P51686)
[2] = biological target: CCR9 C1 (CCR9-RlucII with S335A/T347A/S352A/S356A/S357A) (human) (UniProt P51686)
CCR9-RlucII (human) [3] = biological target: CCR9-RlucII (human) (UniProt P51686)
CCR9 ΔCT (human) = CCR9 ΔCT (human) (UniProt P51686)
CCR9-RlucII (human) [4] = biological target: CCR9-RlucII (human) (UniProt P51686); remark: listed apart in the source

Sequence of Gαq-Nluc (P50148 whole entry): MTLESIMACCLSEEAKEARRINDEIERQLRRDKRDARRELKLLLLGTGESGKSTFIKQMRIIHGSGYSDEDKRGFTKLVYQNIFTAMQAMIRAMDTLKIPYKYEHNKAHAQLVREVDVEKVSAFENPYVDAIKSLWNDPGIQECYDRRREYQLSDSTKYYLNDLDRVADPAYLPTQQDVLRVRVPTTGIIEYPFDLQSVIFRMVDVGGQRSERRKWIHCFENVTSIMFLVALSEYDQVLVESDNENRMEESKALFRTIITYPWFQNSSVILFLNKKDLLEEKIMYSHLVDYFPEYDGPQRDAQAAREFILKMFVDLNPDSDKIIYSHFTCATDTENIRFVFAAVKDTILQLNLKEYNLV
Sequence of Gαi-Nluc (P63096 whole entry): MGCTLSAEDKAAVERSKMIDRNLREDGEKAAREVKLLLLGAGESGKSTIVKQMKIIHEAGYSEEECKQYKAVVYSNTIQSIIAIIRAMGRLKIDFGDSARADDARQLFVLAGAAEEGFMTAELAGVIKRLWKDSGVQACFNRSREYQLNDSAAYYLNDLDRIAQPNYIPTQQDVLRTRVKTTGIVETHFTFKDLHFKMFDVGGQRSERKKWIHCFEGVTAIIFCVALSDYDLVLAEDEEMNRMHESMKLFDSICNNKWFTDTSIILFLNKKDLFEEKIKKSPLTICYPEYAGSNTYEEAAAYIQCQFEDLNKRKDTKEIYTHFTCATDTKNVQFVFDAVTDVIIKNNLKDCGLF

Substance	Gαi-Nluc/Gβγ-smV dissociation BRET (AOC) in HEK293 cells with untagged CCR9 C1 + C2, 100 nM CCL25, against CCR9 WT [1]	Gαi-Nluc/Gβγ-smV dissociation BRET (AOC) in HEK293 cells with untagged CCR9 C1, 100 nM CCL25, against CCR9 WT [2]	decrease in BRET between Gαi-Nluc and Gβγ-smV (G protein dissociation) in HEK293 cells with untagged CCR9, 100 nM CCL25; returns to basal levels within 10 min (CCR9-RlucII (human) [3])	area over the Gαi–Gβγ dissociation curve (AOC), against CCR9 WT (CCR9 ΔCT (human))	maximal decrease in BRET between Gαi-Nluc and Gβγ-smV (G protein dissociation) in HEK293 cells, 100 nM CCL25 (CCR9 ΔCT (human))	area over the Gαq–Gβγ dissociation curve (AOC), against CCR9 WT (CCR9 ΔCT (human))	maximal decrease in BRET between Gαq-Nluc and Gβγ-smV (G protein dissociation) in HEK293 cells, 100 nM CCL25 (CCR9 ΔCT (human))	decrease in BRET between Gαq-Nluc and Gβγ-smV (G protein dissociation) in HEK293 cells with untagged CCR9, 100 nM CCL25 (CCR9-RlucII (human) [4])
Gαi-Nluc (from UniProt P63096 1-354) (natural protein)	2 fold	2 fold	2%	6 fold	7%			
Gαq-Nluc (from UniProt P50148 1-359) (natural protein)						4 fold	5%	0%
